Assay results reported in patent publication US20260116925A1 (ARIZONA BOARD OF REGENTS ON BEHALF OF ARIZONA STATE …, published 2026).

Target: T1, Cathepsin G
T1 sequence (P08311 21-244, species assumed, looked up): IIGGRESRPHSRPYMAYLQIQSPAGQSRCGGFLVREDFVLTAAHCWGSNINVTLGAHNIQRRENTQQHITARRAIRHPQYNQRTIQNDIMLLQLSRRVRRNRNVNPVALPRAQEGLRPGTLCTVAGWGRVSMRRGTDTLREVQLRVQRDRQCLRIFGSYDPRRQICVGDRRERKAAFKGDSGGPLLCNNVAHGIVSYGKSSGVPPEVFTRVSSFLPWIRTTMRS
Assay: cell-based or functional assay

B1: recombinant Serpinb3a (mouse-derived), 6×His-tagged, produced in E. coli (other)
chain: HHHHHHMHLFAEATTKFTLELYRQLRESDNNIFYSPISMMTALAMLQLGAKGNTEKQIEKVLQFNETTKKTTEKSAHCHDEENVHEQFQKLMTQLNKSNDAYDLKAANSIYGAKGFPFVQTFLEDIKEYYQANVESLDFEHAAEESEKKINSWVESQTNGKIKDLFPNGSLNRSTIMVLVNAVYFKGQWNHKFDEKHTTEEKFWLNKNTSKPVQMMKQNIEFNFMFLEDVQAKIVEIPYKGKELSMIVLLPVEINGLKQLEEQLTADKLLEWTRAENMHMTELYLSLPRFKVDEKYDLPIPLEHMGMVDAFDPQKADFSGMSSTQGLVVSKVLHKSFVEVNEEGTEAAAATGVEVSLTSAQIAEDFCCDHPFLFFIIHRKTNSILFFGRISSP
inhibitory stoichiometry (A/A0 (405 nm) vs. time): 1 inhibitor:enzyme ratio
